Measurements as given in US7470669B2, “Isolated polypeptide comprising a leptin fragment” (Serono Genetics Institute, S.A., priority 1999, dated 2008).

Experiments:
db^Pas/db^Pas mice = assay: Postprandial plasma TG response after high-fat test meal in db^Pas/db^Pas mice; format: in vivo, mouse; conditions: 0.25 μg/animal i.p.
Description: FIGS. 1A and 1B show the effect of leptin on postprandial plasma TG response in db/db and db^Pas/db^Pas mice. Overnight-fasted db/db (A), db^Pas/db^Pas (B) mice were gavage-fed a high-fat test meal and immediately injected intravenously (db/db) or intraperitoneally (db^Pas/db^Pas) with saline (open symbols) or 50 μg mouse recombinant leptin (closed symbols). At the indicated times, blood was collected from the tail (A) or orbital (B) vein, plasma was separated by centrifugation, and plasma TG concentrations were determined using an enzymatic kit. Each point represents the mean±SEM (db/db: saline, n=4, leptin, n=3; db^Pas/db^Pas: saline, n=6, leptin, n=7). […] The plasma lipid response was then measured as in A and B. The area under the response curve (AUC) was then calculated using a triangulation method on Microsoft Excel between 0 and 4 hr (mg TG·h/mL). […]
FIGS. 7A and 7B show a comparison of the effect of human and mouse leptin on LSR activity in rat hepatocytes and on postprandial increase in plasma TG in db^Pas/db^Pas mice. […] The media were removed and were analyzed for TCA-soluble degradation products. […] The data represent the difference in TG concentrations measured at t=0 and the average of the concentrations at 3 and 4 hours. […]

LSR = LSR activity (oleate-induced 125I-LDL binding, uptake, degradation) in PLC cells; format: cell-based, human; conditions: 10 ng/mL recombinant leptin
Description: FIGS. 5A, 5B, 5C, and 5D show the stimulatory effect of leptin on LSR activity in PLC and suppression of this effect by 81B antibody. For FIGS. 5A, 5B, and 5C, cultured PLC cells were incubated at 37° C. for 30 min with increasing concentrations of human recombinant leptin in Buffer A. After this, 0.5 mM oleate and 20 μg/mL ^125I-LDL were added, and cells were further incubated at 37° C. for 2 h. Cells were washed, and the amount of oleate-induced ^125I-LDL bound (5A), internalized (5B) and degraded (5C) were measured. […] After washing, the amount of ^125I-LDL binding was determined, and is shown here as the mean±SD of triplicate determinations.
FIGS. 8A and 8B show the effect of mouse or human leptin on LSR activity in primary cultures of rat hepatocytes or a human liver cell line (PLC). […] The cells were washed, and the amount of oleate-induced ^125I-LDL bound and degraded was measured as described previously (Bihain, B. E., and Yen, F. T. (1992). Free fatty acids activate a high-affinity saturable pathway for degradation of low density lipoproteins infibroblasts from a subject homozygous for familial hypercholesterolemia. Biochemistry 31, 4628-4636.
FIGS. 35A and 35B show graphs of LSR activity and mRNA expression measured in PLC cells preincubated 24 h with leptin. […] Cells were washed, and the amount of oleate-induced ^125I-LDL binding was measured as described previously. […]

B1: mouse leptin: recombinant mouse leptin, laboratory-prepared or commercial (Sigma, Calbiochem) (protein, UniProt P41160 22-167, looked up)
Leptin: VPIQKVQDDTKTLIKTIVTRINDISHTQSVSAKQRVTGLDFIPGLHPILSLSKMDQTLAVYQQVLTSLPSQNVLQIANDLENLRDLLHLLAFSKSCSLPQTSGLQKPESLDGVLEASLYSTEVVALSRLQGSLQDILQQLDVSPEC
For B1, the “postprandial plasma TG response” value (db^Pas/db^Pas mice) was “pronounced effect” and the “stimulation of LSR activity in human PLC cells” value (LSR) was “inactive”.
